This is an account of results in publication PMC3668522 (FEBS Open Bio, 2013).

This data set concerns the molecule itself. Kind of data set: cross-linking; SDS-PAGE of the purified CTD polypeptide: 16-kDa dimer band beside the 8-kDa monomer band; dimer formation stimulated by the oxidizing agent Cu(II)-(1,10-phenanthroline)3 and cleaved by dithiothreitol (disulfide bond).

B1: C-terminal domain (CTD) polypeptide of Arabidopsis thaliana metal tolerant protein 1 (AtMTP1) (domain or fragment, UniProt Q9ZT63 320-398, looked up)
chain: MESTPREIDATKLEKGLLEMEEVVAVHELHIWAITVGKVLLACHVNIRPEADADMVLNKVIDYIRREYNISHVTIQIER
With B1, the stoichiometry N (usually the number of molecules, sites or subunits per partner or assembly) amounted to 2.
